Test results from patent US20220089784A1 (University of California, published 2022).

B1: 12A11 scFv (scFv)
scFv: DVQLQESGPGLVKPSQSLSLTCSVTGYSITGGYYWNWIRQFPGNKLEWMGYISYDGSNNYNPSLKNRISITRDTSKNQFFLKLNSVTTEDTATYYCARNMGLWYFDVWGTGTPVTVSAVDLKSGGSTSGSGKPGSGEGSSGSARQIVLTQSPANLSASPGEKVTMTCSASSSVSYMHWYQQKPGSSPKPWIYATSNLASGVPARFSGSGSGTSYSLTISRMEAEDAATYYCQQWSSYPPMYTFGGGTKLELK
notes: mouse
B2: 1C7 scFv (scFv)
scFv: EVQLQQSGAELVRPGASVKMSCKASGYTFTSYNMHWVKQTPRQGLEWIGAIYPGNGDTSYNQKFKGKATLTVDKSSSTAYMQLSSLTSEDSAVYFCARTAGFYFDYWGQGTTLTVSSVDLKSGGSTSGSGKPGSGEGSSGSARDIVMTQSPAIMSASPGEKVTMTCSASSSVSYMYWYQQKPGSSPRLLIYYTSNLAPGVPARFSGSGSGNSYSLTISSMEGEDAATYYCQQFTSSPYTFGGGTKLEIK
notes: mouse
B3: 10C9 scFv (scFv)
scFv: QVQLQQSGAELVRPGTSVKLSCKASGYTFTSHWMHWVKQRPGQGLEWIGVIDPSDSYTNYNQKFKGKATLTVDTSSSTAYMQLSSLTSEDSAVYYCAIRRNYGMDYWGQGTSVTVSSVDLKSGGSTSGSGKPGSGEGSSGSARDIVMTQSPTSLAVSLGQRATISCKASQSVDYDGDSFMNWYQQKPGQPPKLLIYGASNLESGIPARFSGSGSRTDFTLTINPVEADDVATYYCQQSNEDPLTFGAGTKLELK
notes: mouse
B4: 1H5 scFv (scFv)
scFv: EVQLQQSGAELVRPGTSVKLSCKASDYTFTNYWTHWVKQRPGQGLEWIGVIDPSDSYTNYNQKFKGKATLTVDTSSSTAYMQLSSLTSEDSAVYYCARGYYDTMDYWGQGTTVTVSSVDLKSGGSTSGSGKPGSGEGSSGSARDIVLTQSPASLAVSLGQRATISCRASESVDYDGDSYMNWYQQKPGQPPKLLIYAASNLESGIPARFSGSGSGTDFTLNIHPVEEEDAATYYCLQSNEAPWTFGGGTKLEIK
notes: mouse
B5: ING2 scFv (scFv, V domains shown)
VH: QVQLVQSGAEVKKPGSSVKVSCKASGDTFNRNAIAWVRQAPGQGLEWMGRIIPNLRTTHYAQKFQGRVAITADKHTNTVFMELSSLRSEDTAVYYCARDPYYYSYMDVWGKGTTVTVSS
VL: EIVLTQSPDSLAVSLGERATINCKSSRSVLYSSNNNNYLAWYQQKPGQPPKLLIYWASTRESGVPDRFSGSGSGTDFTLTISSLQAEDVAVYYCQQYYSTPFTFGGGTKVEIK
B6: 1D9 scFv (scFv)
scFv: EVKLVESGGDLVKPGGSLKLSCAASGFTFSSYGMSWVRQTPDKRLEWVATISSGGSYTYYPDNVKGRFTISRDNAKNNLFLQMSHLKSEDTAMYYCARDWDYYYGSYWYFDVWGTGTSVTVSSVDLKSGGSTSGSGKPGSGEGSSGSARENVLTQSPAILSASPGEKVTMTCRASSSVSYMHWYQQKPGSSPRLLIYDTSNLASGVPVRFSGSGSGTSYSLTISRMEAEDAATYYCQQWSSYPYTFGGGTKLEIK
notes: mouse
B7: 10B4 scFv (scFv)
scFv: QVQLKESGPGLVKPSQTVSLTCTVTGYSITNGNHWWNWIRQVSGSKLEWIGYISSSGYTDINPSLKSRISITRDTSKNQLFLQLNSVTTEDIATYYCARDDGYYEALDYWGQGTSVTVSSVDLKSGGSTSGSGKPGSGEGSSGSARDIVMSQSPAIMSASPGEKVTLTCSASSSVSSNYLYWYQQKPGSSPKLWIYSTSNLASGVPARFSGSGSGTSYSLTISRVEAEDAATYYCQQWSSNPPTFGGGTKLEIK
notes: mouse
B8: 11D8 scFv (scFv)
scFv: EVQLQQSGAELVRPGTSVKLSCKASGYTFTSYWMHWVKQRPGQGLEWIGVIDPSDSYTNYNQKFKGKATLTVDTSSSTAYMQLSSLASEDSAVYYCARYPGNRAMDYWGQGTSVTVSSVDLKSGGSTSGSGKPGSGEGSSGSARDIVLTQSPASLAVSLGQRATISCRASESVDYDGDSYMNWYQQKPGQPPKLLIYAASNLESGIPARFSGSGSGTDFTLNIHPVEEEDAATYYCLQSNEAPWTFGGGTKLEIK
notes: mouse
B9: 1D2 scFv (scFv)
scFv: QVQLKESGAELMKPGASVKLSCKATGYTFTGYWIEWVKQRPGHGLEWIGEILPGSGSTNYNEKFKGKATFTADTSSNTAYMQLSSLTTEDSAIYYCASIYYGHDYWGQGTTLTVSSVDLKSGGSTSGSGKPGSGEGSSGSARDIVMTQSPKFMSTSVGDRVSVTCKASQNVGTNVAWYQQKPGQSPKALIYSASYRYSGVPDRFTGSGSGTDFTLTISNVQSEDLAEYFCQQYNSYPYTFGGGTKLEIK
notes: mouse
B10: 1C10 scFv (scFv)
scFv: QIQLLQPGTELVRPGTSVKLSCKASGYTFTNYWMHWVKQRPGQGLEWIGVIDPSDSYTNYNQKFKGKATLTVDTSSSTAYMQLSSLTFEDSAVYYCARYSGPYAMDYWGQGTTLTVSAVDLKSGGSTSGSGKPGSGEGSSGSAREIVLTQSPASLAVSLGQRATISCRACESVDYDGDSYMNWYQQKPGQPPKLLIYAASNLESGIPARFSGSGSGTDFTLNIHPVEEEDAATYYCLQSNEAPWTFGGGTKLEIK
notes: mouse
B11: 10H10 scFv (scFv)
scFv: QVQLQQSGAELVRPGTSVKLSCKASGYTFTSYWMHWVKQRPGQGLEWIGVIDPSDSYTNYNQKFKGKATLTVDTSSSTAYMQLSSLTSEDSAVYYCARGGGRSSLDYWGQGTSVTVSSVDLKSGGSTSGSGKPGSGEGSSGSARDVVMTQTPASLAVSLGQRATISCKASQSVDYDGDSYMNWYQQKPGQPPKLLIYAASSLESGIPARFSGSGSGTDFTLNIHPVEEEDAATYYCQQSNEDPYTFGGGTKLEIK
notes: mouse
B12: 10F9 scFv (scFv)
scFv: EVQLQQSGAELVKPGASVKLSCKASGYTFTSYWMHWIKQRPGQGLEWIGVIDPSDSYTNYNQKFKGKATLTVDTSSSTAYMQLSSLTSEDSAVYYCATGGNGFFDYWGQGTTLTVSSVDLKSGGSTSGSGKPGSGEGSSGSARDIVLTQSPASLAVSLGQRATISCRASESVDYDGDSYMNWYQQKPGQPPKLLIYAASNLESGIPARFSGSGSGTDFTLNIHPVEEEDAATYYCLQSNEAPWTFGGGTKLELK
notes: mouse
B13: 7C8 scFv (scFv)
scFv: LQLKQSGPGLVKPSQSLSLTCSVTGYSITSGYYWYWIRQFPGNKLEWMGYISYDGSNNYNPSLKNRISITRDTSKNQFFLKLNSVTTEDTATYYCARNLGLWYFDVWGTGTPLTVSSVDLKSGGSTSGSGKPGSGEGSSGSAREIVLTQSPAILSASPGEKVTMTCRASSSVRYMHWYQQKPGSSPKPWIYATSNLASGVPARFSGSGSGTSYSLTISRVEAEDAATYYCQQWSGNAPTFGGGTKLEIK
notes: mouse
B14: 9B2 scFv (scFv)
scFv: QVQLQQSGAELVRPGASVKLSCTASGFNIEDDYMHWVKQRPEQGLEWIGRIDPANGNTEYAPKFQDKATITADTSSNTAYLQLSRLTSEDTAVYYCARGGWLGNYYAMDYWGQGTSVTVSSVDLKSGGSTSGSGKPGSGEGSSGSARDIVMTQTPLTLSVTIGQPASISCRSSQSLLHNYGNTYLHWYLQKPGQSPKLLIYKVSNRFSGVPDRFSGSGSGTDFTLKISRVEAEDLGVYFCSQGTHVPWTFGGGTKLEIK
notes: mouse
B15: 1D8 scFv (scFv)
scFv: EVQLQESGAELVRPGTSVKLSCKASGYTFTSYWMHWVKQRPGQGLEWIGVIDPSDSYTNYNQKFKGKATLTVDTSSSTAYMQLSSLTSEDSAVYYCARGSSGYVNYWGQGTTLTVSSVDLKSGGSTSGSGKPGSGEGSSGSARDIVMSQSPASLAVSLGQRATISCRASESVDYDGDSYMNWYQQKPGQPPKLLIYAASNLESGIPARFSGSGSGTDFTLNIHPVEEEDAATYYCLQSNEAPWTFGGGTKLEIK
notes: mouse
B16: 10H11 scFv (scFv)
scFv: QIQLLQSGAELVKPGASVKLSCTASGFNIKDYYMHWVKQRPEQGLEWIGRIDPEDGDTEYAPKFQGKATMTADTSSNTAYLQLSSLTSEDSAVYFCARLNYDYPYWYFDVWGTGTTLTVSSVDLKSGGSTSGSGKPGSGEGSSGSARQIVLTQSPAIMSASPGEKVTMTCSASSSVSYMYWYQQKPGSSPRLLIYDTSNLASGVPVRFSGSGSGTSYSLTISRMEAEDAATYYCQQWSSYPLTFGAGTRLELK
notes: mouse
B17: 10B12 scFv (scFv)
scFv: EVQLQQSGAELVRPGTSVKLSCKSSGYTFTSDWMHWVIQRPGQGLEWIGVIDPSDSYTNYNQKFKGKATLTVDTSSSTAYMHLSSLTSEDSAVYYCARREGHYYGKAMDYWGQGTSVTVSSVDLKSGGSTSGSGKPGSGEGSSGSARDIVMSQSPASLAVSLGQRATISCRASESVDYDGDSYMNWYQQKPGQPPKLLIYAASNLESGIPARFSGSGSGTDFTLNIHPVEEEDAATYYCLQSNEAPWTFGGGTKLEIK
notes: mouse

What follows are binders tested against BoNT/A light chain (recombinant) (Clostridium botulinum, UniProt P0DPI0 1-448) (assay: yeast scFv FACS).

| Binder | Kd [nM] |
| --- | --- |
| B1 | 25.8 |
| B2 | 35.3 |
| B3 | 0.36 |
| B4 | 10.6 |
| B5 | > 16.3 |
| B6 | 9.13 |
| B7 | 1.53 |
| B8 | 0.22 |
| B9 | 6.4 |
| B10 | 4.85 |
| B11 | 11.1 |
| B12 | 0.09 |
| B13 | 0.94 |
| B14 | 0.67 |
| B15 | 3.35 |
| B16 | 0.92 |
| B17 | 0.53 |

Each binder was assayed against BoNT/A1 holotoxin (Hall hyper) (Clostridium botulinum, UniProt P0DPI0 2-1296) (assay: yeast scFv FACS).

| Binder | Kd [nM] | binding result |
| --- | --- | --- |
| B1 | 0.66 | – |
| B2 | – | no binding |
| B3 | > 500 | – |
| B4 | – | no binding |
| B5 | 0.11 | – |
| B6 | – | no binding |
| B7 | > 500 | – |
| B8 | – | no binding |
| B9 | – | no binding |
| B10 | – | no binding |
| B11 | – | no binding |
| B12 | > 500 | – |
| B13 | 0.73 | – |
| B14 | 232 | – |
| B15 | – | no binding |
| B16 | – | no binding |
| B17 | – | no binding |

These binders were tested against BoNT/A2 holotoxin (FRI-H1A2) (Clostridium botulinum, UniProt Q45894 2-1296) (assay: yeast scFv FACS).
Chain of BoNT/A2 holotoxin (FRI-H1A2) (Q45894 2-1296): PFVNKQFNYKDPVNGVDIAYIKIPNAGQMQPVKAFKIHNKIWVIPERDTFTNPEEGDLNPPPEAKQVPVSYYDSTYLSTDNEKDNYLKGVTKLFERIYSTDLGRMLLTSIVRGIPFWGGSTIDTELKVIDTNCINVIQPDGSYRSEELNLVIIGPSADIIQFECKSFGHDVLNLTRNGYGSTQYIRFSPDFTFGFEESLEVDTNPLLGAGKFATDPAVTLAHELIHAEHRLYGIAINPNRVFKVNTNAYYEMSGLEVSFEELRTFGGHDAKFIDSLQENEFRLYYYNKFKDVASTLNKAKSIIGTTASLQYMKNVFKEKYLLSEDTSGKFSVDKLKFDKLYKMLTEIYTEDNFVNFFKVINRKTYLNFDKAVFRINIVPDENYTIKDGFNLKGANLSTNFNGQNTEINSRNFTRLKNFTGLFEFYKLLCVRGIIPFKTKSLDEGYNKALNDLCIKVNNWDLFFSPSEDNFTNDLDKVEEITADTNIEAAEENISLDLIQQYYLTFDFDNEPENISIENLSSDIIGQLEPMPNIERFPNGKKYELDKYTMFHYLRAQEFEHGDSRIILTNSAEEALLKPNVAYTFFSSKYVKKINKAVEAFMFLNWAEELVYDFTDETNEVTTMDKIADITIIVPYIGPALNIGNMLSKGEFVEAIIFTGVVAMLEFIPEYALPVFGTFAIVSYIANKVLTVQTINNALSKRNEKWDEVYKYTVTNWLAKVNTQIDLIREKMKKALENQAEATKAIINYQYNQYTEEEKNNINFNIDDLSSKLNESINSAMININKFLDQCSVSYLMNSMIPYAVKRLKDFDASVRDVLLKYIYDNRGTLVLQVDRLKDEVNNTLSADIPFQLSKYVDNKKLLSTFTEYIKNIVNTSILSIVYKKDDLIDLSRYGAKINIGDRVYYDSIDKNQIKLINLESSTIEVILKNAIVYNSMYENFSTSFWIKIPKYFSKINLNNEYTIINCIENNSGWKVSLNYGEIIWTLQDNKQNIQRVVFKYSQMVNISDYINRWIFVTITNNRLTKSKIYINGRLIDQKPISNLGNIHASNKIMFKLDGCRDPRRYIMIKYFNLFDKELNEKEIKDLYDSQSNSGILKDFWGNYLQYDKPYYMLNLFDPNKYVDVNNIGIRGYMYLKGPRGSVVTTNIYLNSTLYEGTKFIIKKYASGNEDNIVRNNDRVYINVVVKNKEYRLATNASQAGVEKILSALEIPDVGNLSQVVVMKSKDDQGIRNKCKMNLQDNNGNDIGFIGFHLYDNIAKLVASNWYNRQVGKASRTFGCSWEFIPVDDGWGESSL

| Binder | Kd [nM] | binding result |
| --- | --- | --- |
| B1 | 2.08 | – |
| B2 | – | no binding |
| B3 | 112 | – |
| B4 | – | no binding |
| B5 | 0.12 | – |
| B6 | – | no binding |
| B7 | 252 | – |
| B8 | – | no binding |
| B9 | – | no binding |
| B10 | – | no binding |
| B11 | – | no binding |
| B12 | > 500 | – |
| B13 | 0.45 | – |
| B14 | 154 | – |
| B15 | – | no binding |
| B16 | – | no binding |
| B17 | 140 | – |
